Here are results for five sequences from the supplement of paper PMC5998384.

Data set [1] concerns HeLa Kyoto. Kind of data set: solubility change mitosis vs G1/S (difference of NP-40 vs SDS log2 ratios) (log2 ratio difference); higher = more soluble in mitosis.
Data set [2] has as its system HeLa Kyoto. Kind of data set: thermal stability score vs G1/S (z-score of summed log2 fold changes over temperatures); higher = more thermally stable than in G1/S.
Data set [3] relates to HeLa Kyoto. Kind of data set: solubility in G1/S (NP-40 vs SDS abundance) (log2 ratio); higher = more soluble. As to conditions: cell cycle stage: G1/S.
The test system of data set [4] is HeLa Kyoto. Kind of data set: melting temperature (median over replicates), in situ; higher = more thermally stable.
The mark [5] stands for this setting: cell cycle stage: early G1 (4.5 h after nocodazole release).
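Wherever melting temperature (median over replicates), in situ is given: HeLa Kyoto cells synchronized by double thymidine or nocodazole block, proteins quantified by TMT10plex mass spectrometry, three independent biological replicates.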
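Wherever solubility change mitosis vs G1/S (difference of NP-40 vs SDS log2 ratios) is given: synchronized HeLa Kyoto cells (double thymidine block for G1/S, nocodazole release for mitosis), protein amounts in NP-40 versus SDS lysates quantified by mass spectrometry, three biological replicates.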
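Wherever solubility in G1/S (NP-40 vs SDS abundance) is given: HeLa Kyoto cells arrested at G1/S by double thymidine block, proteins quantified by TMT10plex mass spectrometry in mild NP-40 versus SDS extracts, three biological replicates.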
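Wherever thermal stability score vs G1/S (z-score of summed log2 fold changes over temperatures) is given: synchronized HeLa Kyoto cells, proteins quantified by TMT10plex mass spectrometry, three biological replicates, mitosis taken 0.5 h after nocodazole release, G1/S directly after double thymidine block.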

As for “MTLDMDAVLSDFVRSTGAEPGLARDLLEGKNWDVNAALSDFEQLRQVHAGNLPPSFSEGSGGSRTPEKGFSDREPTRPPRPILQRQDDIVQEKRLSRGISHASSSIVSLARSHVSSNGGGGGSNEHPLEMPICAFQLPDLTVYNEDFRSFIERDLIEQSMLVALEQAGRLNWWVSVDPTSQRLLPLATTGDGNCLLHAASLGMWGFHDRDLMLRKALYALMEKGVEKEALKRRWRWQQTQQNKESGLVYTEDEWQKEWNELIKLASSEPRMHLGTNGANCGGVESSEEPVYESLEEFHVFVLAHVLRRPIVVVADTMLRDSGGEAFAPIPFGGIYLPLEVPASQCHRSPLVLAYDQAHFSALVSMEQKENTKEQAVIPLTDSEYKLLPLHFAVDPGKGWEWGKDDSDNVRLASVILSLEVKLHLLHSYMNVKWIPLSSDAQAPLAQPESPTASAGDEPRSTPESGDSDKESVGSSSTSNEGGRRKEKSKRDREKDKKRADSVANKLGSFGKTLGSKLKKNMGGLMHSKGSKPGGVGTGLGGSSGTETLEKKKKNSLKSWKGGKEEAAGDGPVSEKPPAESVGNGGSKYSQEVMQSLSILRTAMQGEGKFIFVGTLKMGHRHQYQEEMIQRYLSDAEERFLAEQKQKEAERKIMNGGIGGGPPPAKKPEPDAREEQPTGPPAESRAMAFSTGYPGDFTIPRPSGGGVHCQEPRRQLAGGPCVGGLPPYATFPRQCPPGRPYPHQDSIPSLEPGSHSKDGLHRGALLPPPYRVADSYSNGYREPPEPDGWAGGLRGLPPTQTKCKQPNCSFYGHPETNNFCSCCYREELRRREREPDGELLVHRF [OTUD7B]”, the “solubility change mitosis (log2)” value in data set [1] is -0.0993. Also, the thermal stability score in data set [2] (setting [5]) is 0.347; in data set [2] (cell cycle stage: mitosis), 0.243. Also, in data set [3], the “solubility in G1/S (log2)” value amounted to 0.376. Besides, the values for the melting temperature in data set [4] (cell cycle stage: G1/S) and in data set [4] (cell cycle stage: mitosis) were 50.8 °C and 50.9 °C, respectively.
For “MAQPPPDVEGDDCLPAYRHLFCPDLLRDKVAFITGGGSGIGFRIAEIFMRHGCHTVIASRSLPRVLTAARKLAGATGRRCLPLSMDVRAPPAVMAAVDQALKEFGRIDILINCAAGNFLCPAGALSFNAFKTVMDIDTSGTFNVSRVLYEKFFRDHGGVIVNITATLGNRGQALQVHAGSAKAAVDAMTRHLAVEWGPQNIRVNSLAPGPISGTEGLRRLGGPQASLSTKVTASPLQRLGNKTEIAHSVLYLASPLASYVTGAVLVADGGAWLTFPNGVKGLPDFASFSAKL [DECR2]”, the “solubility change mitosis (log2)” value in data set [1] is -0.232. Also, the thermal stability score in data set [2] (setting [5]) came to 1.32; in data set [2] (cell cycle stage: mitosis), 0.657. Moreover, the “solubility in G1/S (log2)” value in data set [3] is 0.0495. For the same sequence, the melting temperature in data set [4] (cell cycle stage: G1/S) turned out to be 51.9 °C; in data set [4] (cell cycle stage: mitosis) it was 52.1 °C.
As for “MAQTPAFDKPKVELHVHLDGSIKPETILYYGRRRGIALPANTAEGLLNVIGMDKPLTLPDFLAKFDYYMPAIAGCREAIKRIAYEFVEMKAKEGVVYVEVRYSPHLLANSKVEPIPWNQAEGDLTPDEVVALVGQGLQEGERDFGVKARSILCCMRHQPNWSPKVVELCKKYQQQTVVAIDLAGDETIPGSSLLPGHVQAYQEAVKSGIHRTVHAGEVGSAEVVKEAVDILKTERLGHGYHTLEDQALYNRLRQENMHFEICPWSSYLTGAWKPDTEHAVIRLKNDQANYSLNTDDPLIFKSTLDTDYQMTKRDMGFTEEEFKRLNINAAKSSFLPEDEKRELLDLLYKAYGMPPSASAGQNL [ADA]”, in data set [1], the “solubility change mitosis (log2)” value was -0.0197. Also, the thermal stability score in data set [2] (setting [5]) was -1.89; in data set [2] (cell cycle stage: mitosis), -1.32. Besides, the “solubility in G1/S (log2)” value in data set [3] was determined as 0.319. In addition, the melting temperature in data set [4] (cell cycle stage: G1/S) was 57.9 °C; in data set [4] (cell cycle stage: mitosis) it was 59.2 °C.
For “MNNLSFSELCCLFCCPPCPGKIASKLAFLPPDPTYTLMCDESGSRWTLHLSERADWQYSSREKDAIECFMTRTSKGNRIACMFVRCSPNAKYTLLFSHGNAVDLGQMSSFYIGLGSRINCNIFSYDYSGYGASSGKPTEKNLYADIEAAWLALRTRYGIRPENVIIYGQSIGTVPSVDLAARYESAAVILHSPLTSGMRVAFPDTKKTYCFDAFPNIDKISKITSPVLIIHGTEDEVIDFSHGLALFERCQRPVEPLWVEGAGHNDVELYGQYLERLKQFVSQELVNL [ABHD17B]”, in data set [1], the “solubility change mitosis (log2)” value was -0.163. Moreover, the figures for the thermal stability score in data set [2] (setting [5]) and in data set [2] (cell cycle stage: mitosis) were -2.83 and -2.95, respectively. The “solubility in G1/S (log2)” value in data set [3] was 0.0257. Also, the melting temperature worked out at 54.9 °C in data set [4] (cell cycle stage: G1/S) and 54.3 °C in data set [4] (cell cycle stage: mitosis).
As to “MWAVLRLALRPCARASPAGPRAYHGDSVASLGTQPDLGSALYQENYKQMKALVNQLHERVEHIKLGGGEKARALHISRGKLLPRERIDNLIDPGSPFLELSQFAGYQLYDNEEVPGGGIITGIGRVSGVECMIIANDATVKGGAYYPVTVKKQLRAQEIAMQNRLPCIYLVDSGGAYLPRQADVFPDRDHFGRTFYNQAIMSSKNIAQIAVVMGSCTAGGAYVPAMADENIIVRKQGTIFLAGPPLVKAATGEEVSAEDLGGADLHCRKSGVSDHWALDDHHALHLTRKVVRNLNYQKKLDVTIEPSEEPLFPADELYGIVGANLKRSFDVREVIARIVDGSRFTEFKAFYGDTLVTGFARIFGYPVGIVGNNGVLFSESAKKGTHFVQLCCQRNIPLLFLQNITGFMVGREYEAEGIAKDGAKMVAAVACAQVPKITLIIGGSYGAGNYGMCGRAYSPRFLYIWPNARISVMGGEQAANVLATITKDQRAREGKQFSSADEAALKEPIIKKFEEEGNPYYSSARVWDDGIIDPADTRLVLGLSFSAALNAPIEKTDFGIFRM [MCCC2]”, the “solubility change mitosis (log2)” value in data set [1] was -0.128. The thermal stability score is -3.15 in data set [2] (setting [5]) and -2.72 in data set [2] (cell cycle stage: mitosis). Further, the “solubility in G1/S (log2)” value in data set [3] was 0.0208. Further, the melting temperature in data set [4] (cell cycle stage: G1/S) is 53.2 °C; in data set [4] (cell cycle stage: mitosis), 53.7 °C.
